Experiment in all cases: fluorescence polarisation; FAM-labelled H3(1-15) peptide, recombinant protein titrated; RT; as described (ref. 28)
Conditions in all cases: both partners purified
(In general: In fluorescence polarisation assays a small probe gives low polarisation when free and higher when bound to something large.)

The target of test [1] is T1, mUHRF1 V1 R-S* (R298A/N299A/T300A/G301A/K302A/S303A), full-length (mouse, UniProt Q8VDF2-1 1-782, R298A | N299A | T300A | G301A | K302A | S303A).
T1 construct: UHRF1, mouse, splicing variant V1, NCBI NP_001104550.1, with six alanine substitutions in Linker 2; source: E. coli BL21(DE3) RIL, purified (HisPur Cobalt-Resin)
T1 sequence (looked up): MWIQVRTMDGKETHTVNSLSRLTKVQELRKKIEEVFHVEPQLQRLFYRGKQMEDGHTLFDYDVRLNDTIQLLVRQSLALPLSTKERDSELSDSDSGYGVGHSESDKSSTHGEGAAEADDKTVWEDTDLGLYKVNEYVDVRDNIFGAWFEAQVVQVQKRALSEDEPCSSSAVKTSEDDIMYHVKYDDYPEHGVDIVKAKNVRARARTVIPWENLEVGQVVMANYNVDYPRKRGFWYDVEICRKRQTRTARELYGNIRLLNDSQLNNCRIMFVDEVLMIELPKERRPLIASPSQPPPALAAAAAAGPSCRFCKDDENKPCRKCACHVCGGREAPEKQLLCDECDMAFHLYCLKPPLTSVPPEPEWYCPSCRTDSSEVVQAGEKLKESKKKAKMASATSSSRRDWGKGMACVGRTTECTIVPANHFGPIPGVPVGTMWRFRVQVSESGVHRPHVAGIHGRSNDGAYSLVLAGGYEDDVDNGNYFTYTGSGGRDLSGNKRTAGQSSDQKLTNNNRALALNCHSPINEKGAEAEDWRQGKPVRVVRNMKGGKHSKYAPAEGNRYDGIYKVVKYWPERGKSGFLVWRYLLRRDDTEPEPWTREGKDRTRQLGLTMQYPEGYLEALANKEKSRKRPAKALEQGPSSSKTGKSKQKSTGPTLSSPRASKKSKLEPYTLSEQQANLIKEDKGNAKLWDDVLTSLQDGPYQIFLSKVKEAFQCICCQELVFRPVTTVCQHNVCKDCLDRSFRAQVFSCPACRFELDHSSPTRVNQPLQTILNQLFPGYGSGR

Test [2] deals with T2, mTTD-PHD V1 P-patch* (P293A/P294A/P295A) (mouse, UniProt Q8VDF2-1 122-380, P293A | P294A | P295A).
T2 construct: UHRF1, mouse, splicing variant V1 (NCBI NP_001104550.1), TTD-Linker 2-PHD, residues 122-380 as told for wild-type mTTD-PHD V1; source: E. coli BL21(DE3) RIL, purified (HisPur Cobalt-Resin)
T2 sequence (looked up): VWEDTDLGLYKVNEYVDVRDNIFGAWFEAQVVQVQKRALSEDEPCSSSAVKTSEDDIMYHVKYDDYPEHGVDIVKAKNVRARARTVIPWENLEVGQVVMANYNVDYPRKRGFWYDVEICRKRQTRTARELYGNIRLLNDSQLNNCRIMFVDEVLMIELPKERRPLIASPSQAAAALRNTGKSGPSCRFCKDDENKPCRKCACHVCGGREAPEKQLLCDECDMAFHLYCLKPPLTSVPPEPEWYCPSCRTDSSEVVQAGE

Test [3] has as its target T3, mTTD-PHD V1 R298* (R298A) (mouse, UniProt Q8VDF2-1 122-380, R298A).
T3 construct: UHRF1, mouse, splicing variant V1 (NCBI NP_001104550.1), TTD-Linker 2-PHD, residues 122-380 as told for wild-type mTTD-PHD V1; source: E. coli BL21(DE3) RIL, purified (HisPur Cobalt-Resin)
T3 sequence (looked up): T2 sequence (looked up) with A172P, A173P, A174P, R177A

Test [4] has as its target T4, mUHRF1 V1 mLinker 2 V1* (P293A/P294A/P295A/L297A/R298A/N299A/T300A/G301A/K302A/S303A), full-length (mouse, UniProt Q8VDF2-1 1-782, P293A | P294A | P295A | L297A | R298A | N299A | T300A | G301A | K302A | S303A).
T4 construct: UHRF1, mouse, splicing variant V1, NCBI NP_001104550.1, with ten alanine substitutions in Linker 2; source: E. coli BL21(DE3) RIL, purified (HisPur Cobalt-Resin)
T4 sequence (looked up): T1 sequence (looked up) with P293A, P294A, P295A, L297A

The target in test [5] is T5, mUHRF1 V1 P-patch/R-S* (P293A/P294A/P295A/R298A/N299A/T300A/G301A/K302A/S303A), full-length (mouse, UniProt Q8VDF2-1 1-782, P293A | P294A | P295A | R298A | N299A | T300A | G301A | K302A | S303A).
T5 construct: UHRF1, mouse, splicing variant V1, NCBI NP_001104550.1, with nine alanine substitutions in Linker 2; source: E. coli BL21(DE3) RIL, purified (HisPur Cobalt-Resin)
T5 sequence (looked up): T1 sequence (looked up) with P293A, P294A, P295A

Changes are numbered by the printed parent chain.

B1: FAM-H3(1-15)K9me3 peptide (N-terminally fluorescein-labelled) (peptide)
peptide: ARTKQTARKSTGGKA
modifications: fluorescein (FAM) on the N-terminus; K9 trimethylated
notes: histone H3 aa 1-15; also called FAM-H3K9me3; source: synthetic peptide (Synpeptide Co., Ltd)
What is called Kd is the concentration at which binding is half-saturated. With B1, the Kd came out at 11.1 ± 0.3 µM in test [1]; 10.2 ± 0.3 µM in test [2]; 5.9 ± 0.5 µM in test [3]; 12.6 ± 0.5 µM in test [4]; 13.9 ± 0.8 µM in test [5].
